Results published in US20150307628.
Residue numbers refer to the chain shown, from its start. Numbers in names are those of the source.

T1: dummy-Fc heavy chain constant region with CH3B of mutant EW-RVT (S-S) (Q347R/S354C/D399V/F405T)
T1 chain: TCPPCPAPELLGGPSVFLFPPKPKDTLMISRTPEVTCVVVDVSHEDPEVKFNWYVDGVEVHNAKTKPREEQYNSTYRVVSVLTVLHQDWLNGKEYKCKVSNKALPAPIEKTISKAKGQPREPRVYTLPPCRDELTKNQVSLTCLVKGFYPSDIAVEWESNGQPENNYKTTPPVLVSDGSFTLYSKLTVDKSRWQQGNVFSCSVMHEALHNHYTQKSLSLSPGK

T2: dummy-Fc heavy chain constant region with CH3B of mutant SW-WVT (S-S) (Y349C/E357W/D399V/F405T)
T2 chain: T1 chain with R123Q, Y125C, C130S, E133W

T3: dummy-Fc heavy chain constant region with CH3B of mutant EEW-RVT (Q347R/D399V/F405T)
T3 chain: T1 chain with C130S

B1: hAY4a scFv-Fc heavy chain with CH3A of mutant EW-RVT (S-S) (Y349C/K360E/K409W) (protein)
chain: T1 chain with R123Q, Y125C, C130S, K136E, V175D, T181F, K185W
B2: dummy-Fc heavy chain constant region with CH3B of mutant SW-WVT (E357W/D399V/F405T) (protein)
chain: T1 chain with R123Q, C130S, E133W
B3: hAY4a scFv-Fc heavy chain with CH3A of mutant SW-WVT (S-S) (Y349S/S354C/K409W) (protein)
chain: T1 chain with R123Q, Y125S, V175D, T181F, K185W
B4: dummy-Fc heavy chain constant region with CH3B of mutant SW-WVT (S-S) (Y349C/E357W/D399V/F405T) (protein)
chain: T1 chain with R123Q, Y125C, C130S, E133W
B5: dummy-Fc heavy chain constant region with CH3B of mutant EW-RVT (S-S) (Q347R/S354C/D399V/F405T) (protein)
chain: T1 chain
B6: dummy-Fc heavy chain constant region with CH3B of mutant EEW-RVT (Q347R/D399V/F405T) (protein)
chain: T1 chain with C130S
B7: dummy-Fc heavy chain constant region with CH3B of mutant EW-RVT (Q347R/D399V/F405T) (protein)
chain: T1 chain with C130S
B8: hAY4a scFv-Fc heavy chain with CH3A of mutant EEW-RVT (Q347E/K360E/K409W) (protein)
chain: T1 chain with R123E, C130S, K136E, V175D, T181F, K185W

Columns and labels:
[1] = co-expression in HEK293F, protein A purification, non-reducing SDS-PAGE, band density (ImageJ); mean ± S.E.M.
[2] = molecular target: T1, dummy-Fc heavy chain constant region …; assay: as above
[3] = molecular target: T2, dummy-Fc heavy chain constant region …; assay: as above
[4] = molecular target: T3, dummy-Fc heavy chain constant region …; assay: as above
[5] = molecular target: T3, dummy-Fc heavy chain constant region …; assay: repeated expression and purification, SDS-PAGE band density (ImageJ)

| Protein | Heterodimer yields, BB Homodimer (CH3B:CH3B) (Fc)2 [1] | further results |
| --- | --- | --- |
| B1 |  | Heterodimer yields, AA Homodimer (CH3A:CH3A) (scFv-Fc)2 [1]: 0.6%; Heterodimer yields, AB Heterodimer (CH3A:CH3B) (scFv-Fc)(Fc) [2]: 94.2% |
| B2 | 1.7% |  |
| B3 |  | Heterodimer yields, AB Heterodimer (CH3A:CH3B) (scFv-Fc)(Fc) [3]: 98.6% |
| B4 | 0.8% |  |
| B5 | 2.2% |  |
| B6 | 6.3% |  |
| B7 | 1.6% |  |
| B8 |  | Heterodimer yields, AB Heterodimer (CH3A:CH3B) (scFv-Fc)(Fc) [4]: 90.9%; yield of formation of the heterodimer [5]: about 90 to 95% |
